Among the data in article doi:10.1101/2021.07.02.450934 are stoichiometry N values, retold here.

In this assay the target is wild-type Pseudomonas testosteroni ketosteroid isomerase (KSI) (Pseudomonas testosteroni). Description: SEC. In general terms: SEC sorts molecules by how far they enter the pores of the column.

“wild-type Pseudomonas testosteroni ketosteroid isomerase (KSI) (enzyme)”: the stoichiometry N (usually the number of molecules, sites or subunits per partner or assembly) worked out at 2.
